Source: PMC3540084

How the values were obtained:
[1] = target: T1, recombinant human caspase-3 (human) (UniProt P42574)
T1 sequence: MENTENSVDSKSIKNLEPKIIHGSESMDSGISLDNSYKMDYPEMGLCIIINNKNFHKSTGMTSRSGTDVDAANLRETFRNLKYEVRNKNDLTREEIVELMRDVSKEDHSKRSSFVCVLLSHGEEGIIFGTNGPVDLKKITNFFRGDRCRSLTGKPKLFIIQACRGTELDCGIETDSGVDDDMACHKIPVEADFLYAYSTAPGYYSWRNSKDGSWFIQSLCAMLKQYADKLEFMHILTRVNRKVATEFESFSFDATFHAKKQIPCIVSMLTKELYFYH

[2] = target: T2, recombinant human caspase-6 (human) (UniProt P55212)
T2 sequence: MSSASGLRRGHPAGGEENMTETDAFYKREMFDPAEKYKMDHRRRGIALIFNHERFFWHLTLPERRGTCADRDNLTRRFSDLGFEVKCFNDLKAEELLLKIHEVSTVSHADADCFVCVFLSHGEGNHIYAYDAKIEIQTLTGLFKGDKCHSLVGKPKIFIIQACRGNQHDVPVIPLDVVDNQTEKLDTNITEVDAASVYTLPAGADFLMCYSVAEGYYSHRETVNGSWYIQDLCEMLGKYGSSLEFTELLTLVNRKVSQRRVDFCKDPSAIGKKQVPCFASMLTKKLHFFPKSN

[3] = target: T3, recombinant human caspase-7 (human) (UniProt P55210)
T3 sequence: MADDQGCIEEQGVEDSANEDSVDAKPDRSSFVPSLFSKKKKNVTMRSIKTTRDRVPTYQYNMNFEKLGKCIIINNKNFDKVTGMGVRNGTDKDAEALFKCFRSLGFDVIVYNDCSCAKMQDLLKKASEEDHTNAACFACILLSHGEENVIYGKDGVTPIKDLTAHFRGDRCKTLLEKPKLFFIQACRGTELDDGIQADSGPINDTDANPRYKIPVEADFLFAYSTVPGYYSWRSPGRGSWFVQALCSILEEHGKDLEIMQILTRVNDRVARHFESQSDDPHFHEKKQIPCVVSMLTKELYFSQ

[4] = target: recombinant human caspase-9 (human) (UniProt P55211)
UniProt P55211, sequence (P55211 whole entry): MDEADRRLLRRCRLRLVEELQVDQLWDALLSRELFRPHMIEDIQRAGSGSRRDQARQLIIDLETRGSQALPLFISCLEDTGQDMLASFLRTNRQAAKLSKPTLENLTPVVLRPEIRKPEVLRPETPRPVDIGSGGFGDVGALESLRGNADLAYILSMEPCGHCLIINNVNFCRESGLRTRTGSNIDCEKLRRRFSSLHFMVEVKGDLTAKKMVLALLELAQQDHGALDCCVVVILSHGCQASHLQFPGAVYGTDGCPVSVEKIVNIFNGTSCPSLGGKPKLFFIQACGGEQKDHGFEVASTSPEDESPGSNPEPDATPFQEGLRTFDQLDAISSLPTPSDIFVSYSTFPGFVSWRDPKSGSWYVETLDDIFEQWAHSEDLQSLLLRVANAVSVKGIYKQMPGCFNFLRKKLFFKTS

i 0,5 of inhibition of rh-caspase-3 activity (release of AMC from Ac-DEVD-AMC, substrate at Km concentration, 22°C) [1]: 2.5 µM
i 0,5 of inhibition of rh-caspase-6 activity (release of AMC from Ac-DEVD-AMC, substrate at Km concentration, 22°C) [2]: 2.2 µM
i 0,5 of inhibition of rh-caspase-7 activity (release of AMC from Ac-DEVD-AMC, substrate at Km concentration, 22°C) [3]: 1.3 µM
i 0,5 of inhibition of rh-caspase-9 activity (release of AMC from Ac-LEHD-AMC, substrate at Km concentration, 22°C) [4]: 0.31 µM
percent inhibition of rh-caspase-9 activity by 100 nM IL-1Ra [4]: 41%
Substance: recombinant human IL-1Ra (from UniProt P18510 26-177) (natural protein)
